Test results as given in US20250109212A1 (BIOSION, published 2025).
Where a chain is given by its changes, count along the chain named.

T1: cynomolgus CD40-his protein (Biosion in house made) (cynomolgus, UniProt P25942 21-191 (human entry), limits assumed)
T1 construct: also called Cyno CD40-his
T1 chain: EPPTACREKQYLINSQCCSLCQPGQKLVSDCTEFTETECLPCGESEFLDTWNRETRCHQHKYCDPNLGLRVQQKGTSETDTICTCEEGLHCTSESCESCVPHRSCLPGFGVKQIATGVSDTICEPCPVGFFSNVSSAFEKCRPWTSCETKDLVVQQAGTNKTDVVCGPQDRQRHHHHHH

B1: HuCD40-C1H1-V2 (antibody, human IgG2, kappa, V domains shown)
VH: EVQLVESGGGLVKPGGSLRLSCAASGFTFSNYGISWVRQAPGKGLEWVSSISSGGDNTYYPDNVKGRFTISRDNAKNSLYLQMNSLRAEDTAVYYCARAGEKAMDYWGQGTLVTVSS
VL: EIVLTQSPATLSLSPGERATLSCRASQTINNNLHWYQQKPGQAPRLLIKYASQSISGIPARFSGSGSGTDFTLTISSLEPEDFAVYFCQQFSSWPLTFGGGTKVEIKR
notes: Humanized anti-CD40 IgG with human IgG2 heavy chain constant region; also called anti-CD40 antibody HuCD40-C1H1-V2
B2: BSI038×S-004 (bispecific antibody, human IgG2, kappa)
heavy: EEELQVIQPDKSVSVAAGESAILHCTITSLIPVGPIQWFRGAGPARELIYNQREGHFPRVTTVSETTKRENMDFSISISNITPADAGTYYCVKFRKGSPDTEFKSGAGTELSVRAKPSAPVVSGPAARATPGGGGSGGGGSEVQLVESGGGLVKPGGSLRLSCAASGFTFSNYGISWVRQAPGKGLEWVSSISSGGDNTYYPDNVKGRFTISRDNAKNSLYLQMNSLRAEDTAVYYCARAGEKAMDYWGQGTLVTVSSASTKGPSVFPLAPCSRSTSESTAALGCLVKDYFPEPVTVSWNSGALTSGVHTFPAVLQSSGLYSLSSVVTVPSSNFGTQTYTCNVDHKPSNTKVDKTVERKCCVECPPCPAPPVAGPSVFLFPPKPKDTLMISRTPEVTCVVVDVSHEDPEVQFNWYVDGVEVHNAKTKPREEQFNSTFRVVSVLTVVHQDWLNGKEYKCKVSNKGLPAPIEKTISKTKGQPREPQVYTLPPSREEMTKNQVSLTCLVKGFYPSDIAVEWESNGQPENNYKTTPPMLDSDGSFFLYSKLTVDKSRWQQGNVFSCSVMHEALHNHYTQKSLSLSPGK
light: EIVLTQSPATLSLSPGERATLSCRASQTINNNLHWYQQKPGQAPRLLIKYASQSISGIPARFSGSGSGTDFTLTISSLEPEDFAVYFCQQFSSWPLTFGGGTKVEIKRTVAAPSVFIFPPSDEQLKSGTASVVCLLNNFYPREAKVQWKVDNALQSGNSQESVTEQDSKDSTYSLSSTLTLSKADYEKHKVYACEVTHQGLSSPVTKSFNRGEC
notes: SIRPαV2D1 variant M1 linked to N-terminus of each heavy chain of HuCD40-C1H1-V2 (human IgG2)
B3: BSI038×S-002 (bispecific antibody, human IgG2, kappa)
heavy: not shown
light: B2 light
notes: Wild-type SIRPαV2D1 linked to N-terminus of each heavy chain of HuCD40-C1H1-V2 (human IgG2)
B4: BSI038×S-005 (bispecific antibody, human IgG2, kappa)
heavy: B2 heavy with K68R, F103V
light: B2 light
notes: SIRPαV2D1 variant M2 linked to N-terminus of each heavy chain of HuCD40-C1H1-V2 (human IgG2)

Key:
[1] = molecular target: T2, recombinant human CD40-his protein (Cat #: CD0-H5228, Acro biosystems) (human, UniProt P25942 21-193); test: SPR (Biacore T200), sample on Protein A chip, antigen-his analyte, 1:1 fit
T2 construct: Bought protein
From the text: (§1) The purified recombinant fusion proteins were characterized for their binding affinity and binding kinetics by Biacore T200 system (GE healthcare, Pittsburgh, PA, USA). The anti-CD40 antibody HuCD40-C1H1-V2 (having the heavy chain and the light chain of SEQ ID NOs: 19 and 20), Selicrelumab (an agonistic anti-CD40 antibody, Roche Inc., prepared in-house with heavy and light chains of SEQ ID NOs: 27 and 28), and SIRPα-Fc fusion proteins, including SIRPαV2D1M1-Fc (IgG2) (SEQ ID NO: 21, X1=I, X2=R, X3=T, X4=K, X5=F), SIRPαV2D1M2-Fc (IgG2) (SEQ ID NO: 21, X1=I, X2=R, X3=T, X4=R, X5=V), SIRPα-isoform2-Fc (SEQ ID NO: 25) were used as positive controls.
(§2) A Protein A chip (Cat #: 29-1275-56, GE healthcare) was used for affinity determination. The recombinant fusion proteins of the disclosure and the positive controls each at the concentration of 2 μg/ml were respectively flowed onto the chip at a flow rate of 10 μl/min. Then, serially diluted recombinant human CD40-his proteins (Cat #: CD0-H5228, Acro biosystems), human CD47-his proteins (Cat #: CD7-H5227, Acro biosystems), cynomolgus CD40-his proteins (Biosion in house made, SEQ ID NO: 29) or cynomolgus CD47-his proteins (Cat #: CD7-C52H1, Acro biosystems), 2-fold dilution in HBS-EP⁺ buffer (provided by Biacore) with a starting concentration of 200 nM, were flowed onto the chip at a flow rate of 30 μl/min. The association kinetics was followed for 2 minutes and the dissociation kinetics was followed for 10 minutes. The association and dissociation curves were fit to a 1:1 Langmuir binding model using the Biacore evaluation software.

[2] = molecular target: T3, human CD47-his protein (Cat #: CD7-H5227, Acro biosystems) (human, UniProt Q08722 19-139); test: dual-binding ELISA: human CD40-Fc coated, binder titrated, detected with human CD47-his and anti-His-HRP, OD450
T3 construct: Bought protein
Protocol: (§3) The binding activity of the recombinant fusion proteins to human CD40 and CD47 was also tested by dual-binding ELISA assay. Briefly, 100 μl/well human CD40-Fc proteins (Cat #: CD0-H5253, ACRO Biosystems) were coated on 96-well plates at 0.2 μg/mL in PBS and incubated overnight at 2-8° C. The next day, the plates were washed 3 times using wash buffer (PBS+0.05% v/v Tween-20, PBST), and then blocked with block buffer (PBS+1% w/v BSA) for 3 hours at 37° C. The plates were then washed 3 times using the wash buffer.
(§4) Serially diluted recombinant fusion proteins of the disclosure or controls (starting at 100 nM with a 6-fold serial dilution) in block buffer were added to the CD40-Fc bound plates, 100 μL per well, and incubated at 37° C. for 1 hour. The plates were washed 3 times using wash buffer, and then added and incubated for 1 hour at 37° C. with 100 μl/well 3 μg/mL human CD47-his protein (Cat #: CD7-H5227, ACRO Biosystems). The plates were washed again using wash buffer, added with 100 μl/well Anti-His tag Antibody (HRP) (1:2000 dilution in block buffer, Cat #: 105327-MM02T-H, Sino Biological) and incubated for 1 hour at 37° C. The plates were washed again using wash buffer. […] The absorbance was read using a microplate reader set to 450 nm, then the OD (450) values were plotted against the recombinant fusion protein or controls concentration. Data was analyzed using Graphpad Prism and EC₅₀ values were reported.

[3] = molecular target: human CD40-Fc protein (prepared in-house) (human); test: competitive ELISA: human CD40-Fc coated, blocked ligand biotin-labeled human CD40L-his, OD(450-630)
Protocol: (§5) The ability of the recombinant fusion proteins of the disclosure to block CD40-CD40L binding was measured in a competitive ELISA assay. Briefly, 100 μl/well human CD40-Fc proteins (prepared in-house with amino acid sequence of SEQ ID NO: 22) were coated on 96-well micro plates at 2 μg/mL in coating buffer (carbonate/bicarbonate buffer) and incubated overnight at 4° C. The next day, the plates were washed once with wash buffer (PBS+0.05% v/v Tween-20, PBST), and then blocked with 5% w/v non-fatty milk in PBST for 2 hours at 37° C. The plates were then washed 4 times using the wash buffer.
Serially diluted recombinant fusion proteins of the disclosure or controls (starting at 10 µg/mL with a 5-fold serial dilution) in PBST with 2.5% w/v non-fatty milk were added to the CD40-Fc bound plates, 100 μl per well, and incubated at 37° C. for 40 minutes. The plates were washed 4 times using wash buffer, and then added and incubated for 40 minutes at 37° C. with 100 μl/well 95 ng/mL biotin-labeled human CD40L-his protein (Cat #: 10239-H08E, Sino biological). The plates were washed again using wash buffer, added with 100 μl/well streptavidin conjugated HRP (1:10000 dilution in PBST buffer, Cat #: 016-030-084, Jackson ImmunoResearch) and incubated for 40 minutes at 37° C. The plates were washed again using wash buffer. […] The absorbance was read on a microplate reader using the dual wavelength mode with 450 nm for TMB and 630 nm as the reference wavelength, then the OD (450-630) values were plotted against the recombinant fusion protein or controls concentration. Data was analyzed using Graphpad Prism and IC₅₀ values were reported.

[4] = molecular target: T4, full length human CD40 (uniprot #P25942-1) on 293T-CD40 cells (human, UniProt P25942 21-277); test: FACS on 293T-CD40 cells, detection with goat anti-human IgG (Fab)-PE, MFI
T4 construct: whole, on cells
Protocol: Following an incubation of 40 minutes at 4° C. in dark, cells were washed three times and resuspended in FACS buffer. Fluorescence was measured using a Becton Dickinson FACS Canto II-HTS equipment and plotted against the recombinant fusion protein or controls concentration. Data was analyzed using Graphpad Prism and EC₅₀ values were reported.

[5] = molecular target: T3, human CD47-his protein (Cat #: …); test: SPR (Biacore T200), sample on Protein A chip, antigen-his analyte, 1:1 fit
From the text: as §1, §2

[6] = molecular target: T1, cynomolgus CD40-his protein (Biosion in …); test: as above
From the text: as §1, §2

[7] = molecular target: T5, cynomolgus CD47-his protein (Cat #: CD7-C52H1, Acro biosystems) (cynomolgus, UniProt A0A2K5X523 19-139); test: as above
T5 construct: Bought protein; also called Cyno CD47-his
From the text: as §1, §2

[8] = molecular target: human CD40-Fc protein (Cat #: CD0-H5253, ACRO Biosystems) (human, UniProt P25942 21-193); test: dual-binding ELISA: human CD40-Fc coated, binder titrated, detected with human CD47-his and anti-His-HRP, OD450
Protocol: as §3, §4

[9] = molecular target: T6, biotin-labeled human CD47-Fc (Biosion in house made) (human, biotin-labeled (sites not given)); test: competitive ELISA: binder premixed with biotin-labeled human CD47-Fc, blocked partner coated human CD172a-Fc, OD(450-630)
T6 construct: also called Human CD47-Fc protein
Protocol: as §5, with “CD47-CD172a” for “CD40-CD40L”, “CD172a-Fc” for “CD40-Fc”, “24)” for “22)”, “using” for “using the”
Serially diluted recombinant fusion proteins of the disclosure or controls (starting at 100 nM with a 5-fold serial dilution) were mixed with 20 ng/ml biotin-labeled human CD47-Fc (Biosion in house made, SEQ ID NO: 23) in PBST with 2.5% w/v non-fatty milk. The mixtures were incubated at 37° C. for 40 minutes, and respectively added to the CD172a-Fc bound plates, 100 μl per well. The plates were incubated at 37° C. for 40 minutes, washed 4 times using wash buffer, added with 100 μl/well streptavidin conjugated HRP (1:10000 dilution in PBST buffer, Cat #: 016-030-084, Jackson ImmunoResearch), incubated for 40 minutes at 37° C., and washed again using wash buffer. […] The plates were read on a microplate reader using the dual wavelength mode with 450 nm for TMB and 630 nm as the reference wavelength, and the OD (450-630) values were plotted against the recombinant fusion protein or controls concentration. Data was analyzed using Graphpad Prism and IC₅₀ values were reported. Wild-type SIRPαV2D1-Fc (IgG2) (SEQ ID NO: 21, X1=V, X2=K, X3=S, X4=K, X5=F) was used as a positive control.

Row | Kd [1] | koff [1] | kon [1] | binding result [2] | IC50 [3] | EC50 [4] | Kd [5] | koff [5] | kon [5] | Kd [6] | koff [6] | kon [6] | Kd [7] | koff [7] | kon [7] | EC50 [8] | IC50 [9] | Binder
1 | 1.05 nM | 0.00169 s⁻¹ | 1.62e+06 M⁻¹ s⁻¹ | no binding (tested: 100 nM) | 1.01 nM | 1.06 nM |  |  |  |  |  |  |  |  |  |  |  | B1
2 | 0.937 nM | 0.00164 s⁻¹ | 1.75e+06 M⁻¹ s⁻¹ |  |  |  | 0.987 nM | 0.000586 s⁻¹ | 594000 M⁻¹ s⁻¹ | 2.16 nM | 0.00163 s⁻¹ | 753000 M⁻¹ s⁻¹ | 6.08 nM | 0.000576 s⁻¹ | 94800 M⁻¹ s⁻¹ | 0.213 nM | 2.74 nM | B2
3 | 0.729 nM | 0.00184 s⁻¹ | 2.53e+06 M⁻¹ s⁻¹ |  | ~2.37 nM | 1.19 nM | 6.31 nM | 0.00686 s⁻¹ | 1.09e+06 M⁻¹ s⁻¹ |  |  |  |  |  |  | 0.689 nM | 76.8 nM | B3
4 | 0.935 nM | 0.00165 s⁻¹ | 1.77e+06 M⁻¹ s⁻¹ |  |  |  | 1.15 nM | 0.000598 s⁻¹ | 518000 M⁻¹ s⁻¹ | 2.2 nM | 0.00167 s⁻¹ | 759000 M⁻¹ s⁻¹ | 5.39 nM | 0.000495 s⁻¹ | 91800 M⁻¹ s⁻¹ | 0.197 nM | 2.5 nM | B4
